Assays:
[1] = target: human Claudin18.2 expressed on cells (human) (UniProt P56856); assay: flow cytometry on 293FT CLDN18.2-Luc cells, APC anti-mouse IgG Fc
[2] = target: Human Claudin-18.2 protein (human) (UniProt P56856); assay: SPR (Biacore 8K), antibody captured on Protein A, Claudin-18.2 protein as analyte

- EC50 [1]: 0.07 nM
- Kd [2]: 5.65 nM
- koff [2]: 0.000753 s⁻¹
- kon [2]: 133000 M⁻¹ s⁻¹
Substance: IMAB-mIgG2aFc (antibody)

Source: patent EP4682169A1
